Source: publication PMC7954794, “Protein context shapes the specificity of SH3 domain-mediated interactions in vivo” (Nature Communications, 2021)

B1: YER114C (protein)
chain: PMYIAINEYFKRMEDELDMKPGDKIKVITDDEEYKDGWYFGRNLRTNEEGLYPVVFTQKIT
B2: YDR166C (protein, UniProt P89102 1-971, looked up)
Exocyst complex component SEC5: MDRFQIGDEQLLRFYQLKTINPTHSWAQDSSKLNNEEATSNELGVETSFDILKDFKYGNQISIDKESRAYLNDESLSYIRDPLNGQEMSKELQHLPNDSMRLNYLVNSKQFNVKAFLRDMHKQDSFNDLNNSLDRLDSDIQDQSIHLKQLVGKNFTKYVKIKNKLDQIYKEFDEKTNEKNQCDSPKENQINVESLNKKVDEVIRTTTFKLKPLMDNYQKILNYQATKKFIELNKFYFNLPKSLKRCLTNNDFNEFIIEYSKGLTLRRRFNQSSDASQSLVIKRIWTQIENLLVTYKDLIWNSLINSNFNIDQPQETILSLFSKLLNLENFINNNQRESESGNKNTTSSSNENPILRWMSIKMNGFQNELNELSGHMISKIIHSQRLILQNNTNQDKSQGCVELSYYLKINQLFQIISDTGKDSEGLKSTVEPNKVNTISGTSYLNLNCQPSSQGLTDSPTIIEMWLLILKYINDLWKICDQFIEFWEHIEKFLDGTYQNSIINEKRKENILIGDSNIIESYQKSLILKEEQINEVRLKGEEFITSVSQNLISFFTSSQSSLPSSLKDSTGDITRSNKDSGSPLDYGFIPPNCNGLSCLRYLPKIVEPILKFSTELAQLNITTNGITICRNTLSTIINRCVGAISSTKLRDISNFYQLENWQVYETVTFSSKSQDSSKNLTFEYGVTQFPEIVTSFQEVSIKTTRDLLFAYEKLPIINGISVVSYPSKQLLTGIEIQQIISMEAVLEAILKNAAKDKDNPRNSHTILTLTNLQYFRECAFPNILQYFDDAFEWNLASKNLELFSLLSKMESSIFGNYLSDLKINLRDTLEEKFHEINWPMYTSNSFRVGDYIIEALMILIVVHSECFRIGPQLIHKILIETQIFIARYLFEAFKPYVGNLSNDGSLQIIVDLEFFQKVMGPLLEKDTEATLRACLQNCFQNDTNRLQKCINEINPIVSANLKRTAIQFAAFS
B3: YKR048C (protein, UniProt P25293 1-417, looked up)
Nucleosome assembly protein: MSDPIRTKPKSSMQIDNAPTPHNTPASVLNPSYLKNGNPVRAQAQEQDDKIGTINEEDILANQPLLLQSIQDRLGSLVGQDSGYVGGLPKNVKEKLLSLKTLQSELFEVEKEFQVEMFELENKFLQKYKPIWEQRSRIISGQEQPKPEQIAKGQEIVESLNETELLVDEEEKAQNDSEEEQVKGIPSFWLTALENLPIVCDTITDRDAEVLEYLQDIGLEYLTDGRPGFKLLFRFDSSANPFFTNDILCKTYFYQKELGYSGDFIYDHAEGCEISWKDNAHNVTVDLEMRKQRNKTTKQVRTIEKITPIESFFNFFDPPKIQNEDQDEELEEDLEERLALDYSIGEQLKDKLIPRAVDWFTGAALEFEFEEDEEEADEDEDEEEDDDHGLEDDDGESAEEQDDFAGRPEQAPECKQS
B4: YNL243W (protein, UniProt P33338 1-968, looked up)
Protein SLA2: MSRIDSDLQKALKKACSVEETAPKRKHVRACIVYTWDHQSSKAVFTTLKTLPLANDEVQLFKMLIVLHKIIQEGHPSALAEAIRDRDWIRSLGRVHSGGSSYSKLIREYVRYLVLKLDFHAHHRGFNNGTFEYEEYVSLVSVSDPDEGYETILDLMSLQDSLDEFSQIIFASIQSERRNTECKISALIPLIAESYGIYKFITSMLRAMHRQLNDAEGDAALQPLKERYELQHARLFEFYADCSSVKYLTTLVTIPKLPVDAPDVFLINDVDESKEIKFKKREPSVTPARTPARTPTPTPPVVAEPAISPRPVSQRTTSTPTGYLQTMPTGATTGMMIPTATGAANAIFPQATAQMQPDFWANQQAQFANEQNRLEQERVQQLQQQQAQQELFQQQLQKAQQDMMNMQLQQQNQHQNDLIALTNQYEKDQALLQQYDQRVQQLESEITTMDSTASKQLANKDEQLTALQDQLDVWERKYESLAKLYSQLRQEHLNLLPRFKKLQLKVNSAQESIQKKEQLEHKLKQKDLQMAELVKDRDRARLELERSINNAEADSAAATAAAETMTQDKMNPILDAILESGINTIQESVYNLDSPLSWSGPLTPPTFLLSLLESTSENATEFATSFNNLIVDGLAHGDQTEVIHCVSDFSTSMATLVTNSKAYAVTTLPQEQSDQILTLVKRCAREAQYFFEDLMSENLNQVGDEEKTDIVINANVDMQEKLQELSLAIEPLLNIQSVKSNKETNPHSELVATADKIVKSSEHLRVDVPKPLLSLALMIIDAVVALVKAAIQCQNEIATTTSIPLNQFYLKNSRWTEGLISAAKAVAGATNVLITTASKLITSEDNENTSPEQFIVASKEVAASTIQLVAASRVKTSIHSKAQDKLEHCSKDVTDACRSLGNHVMGMIEDDHSTSQQQQPLDFTSEHTLKTAEMEQQVEILKLEQSLSNARKRLGEIRRHAYYNQDDD
B5: YGR229C (protein, UniProt P32566 1-505, looked up)
Cell wall assembly regulator …: MDLFKRKVKEWVYSLSTDDHYAEYNPDETPTFNMGKRLNSNNGQVNPSQMHLNSVDEEMSMGFQNGVPSNEDINIDEFTSTESNDGVSETLLAWRHIDFWTSEHNPDLNATLSDPCTQNDITHAEEDLEVSFPNPVKASFKIHDGQEDLESMTGTSGLFYGFQLMTLDQVVAMTQAWRNVAKNLNKRSQQGLSHVTSTGSSSSMERLNGNKFKLPNIPDQKSIPPNAVQPVYAHPAWIPLITDNAGNHIGVDLAPGPNGKYAQIITFGRDFDTKFVIAENWGEFLLSFANDLEAGNWYLVDDNDDYFSGDGELVFRDKKSNGPIQDYFEVLKRRTWIKYQENLRSQQQKSQPDTSLQEQKYVPASQKKVAAEQPSTLNAESIKGEDSGSADVQSVQDHESVKIVKTEPSEAETTTVNTESLGQAEHEIKADNVDIKQESERKEDEKQPKVEEKEHVENEHVTESAKKDDDVNKQTEEMNKKEENEIRSDDAKVEEAREEFENIAL

Assays:
Format in all cases: cell-based, Saccharomyces cerevisiae
[1] = system: BEM1-1; experiment: DHFR-PCA on solid medium, bait BEM1-1 (Fig. 1B); settings: bait BEM1-1, label = prey; for medrep (log2 median colony size normalized to plate background, PCA score): 2-8 replicates; for Ratio (SH3-deleted/WT medrep): only significant differences showed, PPIs completely lost have a ratio of 0.1 and the gained PPIs 2.5
From the text: (§1) Supplement 41467_2021_21873_MOESM8_ESM.xlsx, sheet "Fig1B" | column: medsize; medrep; Ratio; Score

[2] = system: BEM1-2; experiment: DHFR-PCA on solid medium, bait BEM1-2 (Fig. 1B); settings: bait BEM1-2, label = prey; for medrep (log2 median colony size normalized to plate background, PCA score): 2-8 replicates; for Ratio (SH3-deleted/WT medrep): only significant differences showed, PPIs completely lost have a ratio of 0.1 and the gained PPIs 2.5
From the text: as §1

[3] = system: BOI2; experiment: DHFR-PCA on solid medium, bait BOI2 (Fig. 1B); settings: bait BOI2, label = prey; for medrep (log2 median colony size normalized to plate background, PCA score): 3-8 replicates; for Ratio (SH3-deleted/WT medrep): only significant differences showed, PPIs completely lost have a ratio of 0.1 and the gained PPIs 2.5
From the text: as §1

[4] = system: ABP1; experiment: DHFR-PCA on solid medium, bait ABP1 (Fig. 1B); settings: bait ABP1, label = prey; 2-4 replicates
From the text: as §1

[5] = system: BBC1; experiment: DHFR-PCA on solid medium, bait BBC1 (Fig. 1B); settings: bait BBC1, label = prey; for medrep (log2 median colony size normalized to plate background, PCA score): 2-4 replicates; for Ratio (SH3-deleted/WT medrep): only significant differences showed, PPIs completely lost have a ratio of 0.1 and the gained PPIs 2.5
From the text: as §1

[6] = system: 575 putative partners (preys) of 22 WT SH3-containing proteins; experiment: DHFR-PCA on solid medium, WT and SH3-deleted baits (Fig. 1B); set-up: key to Score: 0: SH3-independent; 1: SH3-dependent PPIs; 2: SH3-inhibited PPIs; settings: for medrep (log2 median colony size normalized to plate background, PCA score): label = prey; for Ratio (SH3-deleted/WT medrep): only significant differences shown, PPIs completely lost have a ratio of 0.1, gained PPIs 2.5
Method in brief: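 In S. cerevisiae, 22 SH3-containing baits fused genomically to DHFR F[1,2], either WT or with each SH3 replaced via CRISPR by a poly-Gly/Ser linker, screened against 575 DHFR F[3] preys plus 40 negative controls in 1536 arrays, preys duplicated at randomized positions.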

[7] = bait SLA1-2, DHFR-PCA, Replicates 4 (2 for YCR009C, YDR388W)
[8] = bait SLA1-3, DHFR-PCA, Replicates 4 (2 for YCR009C, YDR388W, YIL033C)

Molecule | medrep (log2 median colony size normalized to plate background, PCA score) [1] | medrep (log2 median colony size normalized to plate background, PCA score) [2] | Ratio (SH3-deleted/WT medrep) [2] | medrep (log2 median colony size normalized to plate background, PCA score) [3] | Ratio (SH3-deleted/WT medrep) [3] | medrep (log2 median colony size normalized to plate background, PCA score) [4] | medrep (log2 median colony size normalized to plate background, PCA score) [5] | Ratio (SH3-deleted/WT medrep) [5] | medrep (log2 median colony size normalized to plate background, PCA score) [6, 7] | Score ([6]; bait SLA1-2, label = prey) | Ratio (SH3-deleted/WT medrep) ([6]; bait SLA1-2, label = prey) | medrep (log2 median colony size normalized to plate background, PCA score) [6, 8] | Score ([6]; bait SLA1-3, label = prey) | Ratio (SH3-deleted/WT medrep) [1]
B1 | 2.85 | 2.85 | 0.1 | 3.383 |  |  |  |  |  |  |  |  |  | 
B2 | 2.981 | 2.981 | 0.1 | 1.688 | 0.1 |  |  |  |  |  |  |  |  | 
B3 |  |  |  | 1.303 | 2.5 | 3.939 | 1.806 | 0.1 | 1.303 | 1 | 0.1 | 1.303 | 0 | 
B4 | 1.569 | 1.569 | 0.1 |  |  | 4.661 | 2.46 | 0.1 | 4.4709 | 0 |  | 4.4709 | 0 | 0.1
B5 | 1.341 | 1.341 |  |  |  | 3.977 | 2.755 | 0.1 | 3.075 | 1 | 0.1 | 3.075 | 0 | 0.1
